The text below walks through data of patent EP4717714A1 (Shanghai Junshi Biosciences Co., Ltd., dated 2026).

Assay [1] addresses T1, Recombinant human PD-1 (prepared by Suzhou Junmeng Biopharm Co., Ltd. according to the sequence of NCBI … (human, UniProt Q15116 25-170, limits assumed)).
T1 construct: Soluble recombinant protein used in BLI and coated in ELISA; also called antigen PD-1
Briefly: competitive ELISA, PD-1 coated, competitor Biotin-PD-L1 hFc at 4.0 µg/mL (FIG. 9b).

Assay [2] concerns the target T1, Recombinant human PD-1 (prepared by …). Briefly: indirect ELISA, human PD-1 coated at 0.3 µg/mL (FIG. 6b). In general terms: In an ELISA, binding on a coated surface is turned into a signal by an enzyme label.
The target of assay [3] is T2, Recombinant human VEGFA (Sino Biological, catalog number 11066-HNAB) (human).
T2 construct: also called VEGF antigen; Human/Cynomolgus VEGF/VEGFA/VEGF165 Protein
T2 chain: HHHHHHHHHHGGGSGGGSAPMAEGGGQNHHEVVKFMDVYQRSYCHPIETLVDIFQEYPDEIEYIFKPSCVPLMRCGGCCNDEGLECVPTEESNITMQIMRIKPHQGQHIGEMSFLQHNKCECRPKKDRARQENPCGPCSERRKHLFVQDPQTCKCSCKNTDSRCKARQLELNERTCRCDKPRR
Briefly: indirect ELISA on coated human VEGFA, relative to Avastin control.

The target of assay [4] is T2, Recombinant human VEGFA (Sino …). Briefly: competitive ELISA, VEGFA coated, competitor biotinylated VEGFR2 at 0.3 µg/mL (FIG. 8b).
The target of assay [5] is T1, Recombinant human PD-1 (prepared by …). Briefly: indirect ELISA on coated human PD-1, relative to TAB001 (JS001) control.
Assay [6] concerns the target T2, Recombinant human VEGFA (Sino …). Briefly: BLI (Octet), antibody captured at 5 µg/mL, VEGFA at 25 and 12.5 nM.
Assay [7] has the same target. Briefly: competitive ELISA against VEGFR2 on coated VEGFA, relative to Avastin control.
The target of assay [8] is T1, Recombinant human PD-1 (prepared by …). Briefly: competitive ELISA against PD-L1 hFc on coated PD-1, relative to TAB001 (JS001) control.
Assay [9] addresses T2, Recombinant human VEGFA (Sino …). Briefly: BLI (Octet RED96e), told of the group. On the technique in general: BLI is a label-free optical method that tracks binding on a fibre tip over time.
Assay [10] shares this target. Briefly: indirect ELISA, human VEGFA coated at 0.5 µg/mL (FIG. 7b).
For assay [11], the target named is T1, Recombinant human PD-1 (prepared by …). Briefly: BLI (Octet RED96e), antibody captured at 5 µg/mL, PD-1 at 210 and 70 nM.
The target of assay [12] is Human PD-1 on the cell surface (Jurkat PD-1 effector cells, Promega); CD4 T cells in the mixed lymphocyte … (human, UniProt Q15116 25-288). Briefly: cell-based or functional assay.
The target of assay [13] is T2, Recombinant human VEGFA (Sino …). Briefly: cell-based or functional assay.

B1: Bispecific antibody molecule 28 (bispecific antibody, human IgG4 S228P, kappa)
light: EVQLVESGGGLVQPGGSLRLSCAISGFSLAATDIDWVRQAPGKGLEWVARIFSPSDFTDYADSVKGRFTISADTSKNTVYLQMNSLRAEDTAVYYCGRPDTYAYNIFLDTPTYNALHYRGQGTLVTVSSGGGGSGGGGSGGGGSDVVMTQSPLSLPVTLGQPASISCRSSQSIVHSNGNTYLEWYLQKPGQSPQLLIYKVSNRFSGVPDRFSGSGSGTDFTLKISRVEAEDVGVYYCFQGSHVPLTFGQGTKLEIKRTVAAPSVFIFPPSDEQLKSGTASVVCLLNNFYPREAKVQWKVDNALQSGNSQESVTEQDSKDSTYSLSSTLTLSKADYEKHKVYACEVTHQGLSSPVTKSFNRGEC
heavy: not shown
notes: Anti-PD-1 IgG4 (JS001) with the anti-VEGF VHH at the N-terminus of each light chain; also called Antibody 28; antibody 28 (IgG4)
For orientation: IC50 means the concentration at which inhibition is half-maximal. Broadly, the EC50 is the concentration at which the effect is half-maximal. A word on the Kd: it is the constant that tells how readily two partners part at equilibrium. A word on the koff: it is the rate constant with which the complex falls apart. What is called kon is a measure of how fast the partners come together. On to B1, for which the IC50 worked out at 573 nM in [1] and 1860 nM in [4]. For the same molecule, the EC50 in assay [2] was found to be 59.5 nM; in assay [10], 6.17 nM. Moreover, the “Relative binding activity (%)” value in assay [3] stood at 57%; in [5], 31%; in [7], 163%; in [8], 45%. Also, the figures for the Kd in assay [6], in assay [9] and in assay [11] were 0.0147 nM, under 0.5 nM and 1.67 nM, respectively. Besides, the dissociation rate constant (koff) in [6] was 1.88e-05 s⁻¹; in assay [11], 5.96e-05 s⁻¹. For the same molecule, the results for the on-rate constant (kon) in assay [6] and in [11] were 1.28e+06 M⁻¹ s⁻¹ and 35800 M⁻¹ s⁻¹, respectively. The “EC50, PD-1/PD-L1 luciferase reporter gene system (Jurkat PD-1 / CHO PD-L1)” value in assay [12] stood at 26.1 nM. Also, the “IC50, VEGFA-induced proliferation of HUVEC cells” value in assay [13] was determined as 150 nM.
